In patent US20180355014A1:

Assays:
[1] = molecular target: HLA-A*11:01 (human); experiment: REVEAL MHC-peptide binding assay, recombinant HLA-A*11:01; settings: remark: other sources report otherwise
[2] = molecular target: HLA-B*08:01 (human); experiment: REVEAL MHC-peptide binding assay, recombinant HLA-B*08:01; settings: remark: other sources report otherwise

Binder | In Vitro Score (% of positive control peptide) [1] | In Vitro Score (% of positive control peptide) [2]
IIFWVARGR [… (SEQ ID NO: 46)] | 70.6 | 0.3
IFWVKRGHK [… (SEQ ID NO: 66)] | 30.9 | 3.2
IFWVQRGNK [… (SEQ ID NO: 86)] | 67.5 | 0.1
IIFWVKRGR [… (SEQ ID NO: 19)] | 54.5 | 0
IIFWVQRGA [… (SEQ ID NO: 81)] | 56.5 | 0.2
FIIFWVHRG [… (SEQ ID NO: 39)] | 0.9 | 0.2
IIFWVLRGR [… (SEQ ID NO: 33)] | 35.2 | 0.4
IFWVKRGLK [… (SEQ ID NO: 62)] | 61.1 | 58.3
WVKRGHKKL [… (SEQ ID NO: 68)] | 2.8 | 47.6
IFWVQRGAK [… (SEQ ID NO: 82)] | 61.3 | 0.2
VAFIIFWVK [… (SEQ ID NO: 16)] | 109 | 0.3
IIFWVSRGR [… (SEQ ID NO: 26)] | 68.9 | 0
AFIIFWVHR [… (SEQ ID NO: 38)] | 34.9 | –
IIFWVKRGN [… (SEQ ID NO: 73)] | 42.1 | 0.9
WVKRGNKKL [… (SEQ ID NO: 76)] | 4.1 | 65.9
AFIIFWVSR [… (SEQ ID NO: 24)] | 54 | –
IFWVQRGRK [… (SEQ ID NO: 54)] | 128 | 0

More lines, now with the values ahead:

In Vitro Score (% of positive control peptide) [1] | In Vitro Score (% of positive control peptide) [2] | Binder
25.1 | 0.1 | VAFIIFWVS [… (SEQ ID NO: 23)]
12.8 | 45.1 | WVQRGRKKL [… (SEQ ID NO: 56)]
69.7 | 2.2 | IFWVKRGAK [… (SEQ ID NO: 70)]
– | 0.4 | IIFWVKRGS [… (SEQ ID NO: 57)]
22.6 | 0.9 | IIFWVKRGA [… (SEQ ID NO: 69)]
45.9 | 0.1 | IFWVKRGNK [… (SEQ ID NO: 74)]
– | 0 | IFWVSRGRK [… (SEQ ID NO: 27)]
77.5 | 0.2 | IIFWVHRGR [… (SEQ ID NO: 40)]
36.6 | 0.1 | IFWVHRGRK [… (SEQ ID NO: 41)]
13.8 | 32.4 | WVARGRKKL [… (SEQ ID NO: 49)]
32.4 | 1.7 | IIFWVKRGL [… (SEQ ID NO: 61)]
47.9 | 1.2 | IFWVKRGSK [… (SEQ ID NO: 58)]
10.7 | 32 | WVQRGNKKL [… (SEQ ID NO: 88)]
34.9 | 0 | IFWVARGRK [… (SEQ ID NO: 47)]
72.8 | 0.1 | IIFWVQRGR [… (SEQ ID NO: 53)]
11.8 | 56.1 | WVKRGSKKL [… (SEQ ID NO: 60)]
4.6 | 34.1 | WVKRGAKKL [… (SEQ ID NO: 72)]
51.8 | 0.2 | AFIIFWVAR [… (SEQ ID NO: 45)]
